Assay [1] has as its target T1, human TNFR2 (extracellular domain) (UniProt P20333 23-257).
T1 chain: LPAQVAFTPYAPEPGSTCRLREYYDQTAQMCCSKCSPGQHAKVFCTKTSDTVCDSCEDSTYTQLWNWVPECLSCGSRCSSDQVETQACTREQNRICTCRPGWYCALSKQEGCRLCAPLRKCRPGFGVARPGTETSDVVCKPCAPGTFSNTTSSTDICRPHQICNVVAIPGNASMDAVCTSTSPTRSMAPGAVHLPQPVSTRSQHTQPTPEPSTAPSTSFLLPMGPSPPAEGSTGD
As to the kind of experiment: binding affinity; marked * on sheet.

Assay [2] deals with T1, human TNFR2 (extracellular domain). In words: SPR.
For assay [3] the target is unchanged. As to the kind of experiment: binding affinity.
The target is the same in assay [4]. In words: SPR. Background: In SPR one partner is held on a chip, and binding of the other changes the refractive index at the surface.
The target is the same in assay [5]. As to the kind of experiment: SPR.
The target is the same in assay [6]. As to the kind of experiment: SPR.
Assay [7] has the same target. As to the kind of experiment: SPR.

This is an account of results in patent US20260217845A1 (published 2026).

B1: ODY-35A10 (VHH)
VHH: EVQLVESGGGLVEAGGSLRLSCAASGRTFGSYTMGWFRQAPGREQEFLASIRRTGGSTSYADSVKGRFTISRDNAKKAVYLQMNSLKPEDTAVYYCAAAPTGRAFTYWGQGTQVTVSS
The Kd is the constant that tells how readily two partners part at equilibrium. For B1, the Kd in assay [1] and in assay [2] was 48 nM in each case.

B2: ODY-33D4 (VHH)
VHH: EVQLVESGGGLVQAGGSLRLSCAASGRTFSDYGMGWFRQAPGKDSEFVAAINWSNGRTNYADSVKGRFTISRDNAKNTGYLEMNSLKVEDTAVYYCAATPSGKAYSYWGQGTQVTVSS
As to B2, the Kd in assay [3] and in assay [4] was 5.6 nM throughout.

B3: ODY-37C7 (VHH)
VHH: EVQLVESGGGLVQPGGSLRLSCAASGFTFDDIAMTWVRQAPGKGLEWVSSIYSYGPNTYYADSVKGRFTISTDSAKNTLYLQMNSLKPEDTAVYYCAADSDLSTVVVGPHDYWGQGTQVTVSS
B3: the Kd in assay [3] and in assay [5] was 13 nM throughout.

B4: ODY-31G3 (VHH)
VHH: EVQLVESGGGLVQAGGSLRVSCAASGSIFRADAMGWHRQVPGKPREFVAGIRSDGFTNYAEAVKGRFTISWDTVKNTVYLQMNSLKPEDTAVYTCYYQSLSSPNYGQVFWGQGTQVTVSS
As for B4, the Kd in assay [6] and in assay [3] was 7.9 nM throughout.

B5: ODY-31D6 (VHH)
VHH: EVQLVESGGGLVQAGGSLRLSCAASGSIVSTNGMGWHRQVPGKGRELVAGIRSDGFTNYADSVKGRFTISSDNVKNTVYLQMNSLKAEDSGVYFCYYQALSSPNYGQTFWGQGTQVTVSS
For B5, the Kd in assay [7] and in assay [3] was 19 nM in each case.
